Laboratory results from publication PMC8490722 (Frontiers in Immunology, 2021).

Molecular target: T1, SARS-CoV S1 subunit (SARS-CoV WH20 (AAX16192.1), UniProt Q5DIC5)
T1 construct: source: bought: Sino Biological
Test: western blotting
Conditions: one partner purified

B1: mAb 12C10 (antibody, V domains shown)
VH: EVKLQESGGGLVKPGGSLKLSCAASGFTFSNYSMSWVRQTPEKRLEWVATISNGGGYIYYLDSVKGRFTISRDNAKNTLYLQMSSLRSEDTAMYYCGRPRPEKEFISTSTAMDHWGQGTTVT
VL: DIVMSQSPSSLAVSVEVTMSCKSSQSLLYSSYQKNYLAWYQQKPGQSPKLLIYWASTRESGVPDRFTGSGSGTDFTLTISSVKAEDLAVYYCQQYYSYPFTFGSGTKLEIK
notes: also called anti-R405; source: mouse hybridoma; supernatants or ascites fluid
- binding result: binds
